These results are taken from the DeepSol protein solubility set.

This data set is described as follows: soluble on expression in E. coli; label from the status in PepcDB or PDB records.
On to “MGSDKIHHHHHHMNLEEENTIFKPLYSLKHSPINAYFSKNSDDFVVRERPLYEFSGKGEHLILHINKKDLTTNEALKILSEASGVKIRDFGYAGLKDKQGSTFQYLSMPKKFESFLSNFSHPKLKILEIFTHENKLRIGHLKGNSFFIRLKKVLPSDALKLEQALMNLDKQGFANYFGYQRFGKFGDNYKEGLEILRGKKMKNVKMKEFLISAFQSELFNRYLSKRVELSHFANDFSEKELIQIYKISKEEAKELKKQEQFFKLLKGEVLGHYPFGKCFLCEDLSAELGRFKARDISAMGLLIGAKAYETGEGLALNLENEIFKDTLEFKAKMQGSRRFMWGYLEELKWRYDEEKAHFCIEFFLQKGSYATVVLEEILHKNLFE”, for which the “soluble on expression in E. coli” value is “not soluble”.

Turning to “MSLNQLLFVPLGGIGEIGMNLALYGYGPEHAREWIAVDVGISFAGADFPGVDLVFPDIRFIEELGDKLKGIVITHAHEDHYGALLDLWPKMKVPVYATAFTAAMLAAKREGEPGAPKIPVTQFSAGDRFKVGPFEIEAINVTHSIPEPVALAIRSPAGTVVHTGDWKIDPTPALGAPTDEKRLREIGDEGVLAMICDSTNALREGVSPSESEVSASLGEIIRGAKGRVAVTTFSSNVGRIRSIAAAARDAGRQVLLMGRSMRRVVDVSTELGYMDGIPPFLGEQDFGYIPPEKAVIILTGSQGETRAALARLSRDEHPTVALSQGDLVIFSSRAIPGNEKLIIDIKNALIERGVQILEDGEKLVHVSGHPRRSEMRQMYEWVRPTIAVPAHGEAAHLSAHAKLARELGVKQVVPARNGKMVQLSPGAASVIADVPVGRLFKDEGHHHHHH”, the “soluble on expression in E. coli” value was “soluble”.

As to “GPGSMFQRSLWRFFAHLVREVDTAGFAGDFRRLHHVGAASTQTQAREARHAACNVLFCGHHGTGKLNLLKAIGLQCEKKGQRVAFVSADNQRAARLDGYLINFFIGMRVSRDELPSQEQLEGTLERHVRLVESTFASSFPSLRNIDVLILDALELVQPTVLLSMDAVARRLRGQPRTPFGGLRVYAAADFWRLPVHPTSDTGGYLFQLEQWEVLFPLQTLLRKSHVQKEEELRRLTELAFYGALTLPQMKELEKLSMKEKPESRLFSWSSSTMEAEKSTATATEGEDEEGEIEEEDAMSIAQWTSFPGESAAADLPDGPEGALEATKDDEGAVNDPAAGQTSLSSSSSALALLNDDMASNSFVATRMMLRFPRQPAVKEMPLRYRQLKRTEMGNFLVNMLVHSSSATSVGLVDSLSVDVGSRVHLLLDGQEHYGVPGGAVGEVMQVGPHFLSIHFPREHRTVDIPRMRVVCYHPFYPEIRYELQQFPVFPRKRICPMNILTYPHAFFVNLNGRRMADTNDLGNLLAHQRSFADFTTRNTSDFANLDGMVHEPTRIYYHKISGKPISTAREQWCRNCKQFVPTDSFFEHWATCVHSVRWCIDCNQTVSLELLGPHREKHQVVLCLDCGRPVEWRHWEGHRLSCGPMMREVSTDNQFIPLRTRQLALEMGLDKRDLHTVASITKSSLPKPREGVL”, the “soluble on expression in E. coli” value is recorded as “not soluble”.

For “MSSYFPVYLDLKDKEVLVIGGGRVATRKVKTLLEFTKNITIVSPKVTEELKNLIKEKKIKWIDRKFKPSDLKDKFLVVVAVDDIKLQKRVFNLCEKRGILCNSVDSPKYCNFIFPSIIKRGDLVISISTSGKVPALSRALREKIEECLPENIEEIMKELEIIRKSEEKGEERQKKLLRLARELLKNFLEHHHHHH”, the “soluble on expression in E. coli” value is listed as “soluble”.

Regarding “MIPLPSGTKIWLVAGITDMRNGFNGLAAKVQTTLKDDPMSGHVFIFRGRNGSQVKLLWSTGDGLCLLTKRLERGRFAWPSARDGKVFLTPAQLAMLLEGIDWRQPKRLLTSLTML”, the “soluble on expression in E. coli” value is “not soluble”.

Regarding “MALVPYEESAAIGLQKFHKPLATFSFANHTIQIRQDWRQLGVAAVVWDAAVVLSMYLEMGAVELRGCSAVELGAGTGLVGIVAALPGAQVTITDRKVALEFLKSNVEANLPPHIQPKAVVKELTWGQNLESFSPGEFDLILGADVIYLEDTFTDLLQTLGHLCSNNSVILLACRIRYERDSNFLTMLERQFTVSKVHYDPEKDVHIYKAQKRNQREDL”, the “soluble on expression in E. coli” value is “not soluble”.

For the sequence “CKYEGDAQKRLAIRPFPAEFVETVTLRDGQPILLRPILPEDEPLHAQFINSVSKEDLYKRFFSEVGEFNHEALANFTQIDYDREMAFVAVAFDKSGPSIIGVARALITPDNSDAEFAILVRSDLKGKGLGKILMEKIISYCKIKGTKQMSGMTMPTNRGMLMLAQRLGFEVDVQFADGTADMVLPLN”, the “soluble on expression in E. coli” value is on record as “not soluble”.

Regarding “MNQGERNAVSLLKDKLFNEEGKPVNLIFCYTILQMKVAERIMAQHPGERFYVVLMSENRNEKYDYYFNQIKDKAERAYFFYLPYGLNKSFNFIPTMAELKVKSMLLPKVKRIYLASLEKVSIAAFLSTYPDAEIKTFDDGTNNLIRESSYLGGEFAVNGAIKRNFARMMVGDWSIAKTRNASDEHYTIFKGLKNIMDDGRRKMTYLPLFDASELKAGDETGGTVRILLGSPDKEMKEISEKAAKNFNIQYVAPHPRQTYGLSGVTALNSPYVIEDYILREIKKNPHTRYEIYTFFSGAALTMKDFPNVHVYALKPASLPEDYWLKPVYALFRQADIPILAFDDKLEHHHHHH”, the “soluble on expression in E. coli” value is given as “not soluble”.

Regarding “MSLAATGNASKPSLNSFYADGLGQLRNGLFSCFQPVFGYFGTKTTVEIEKSEDELWEIPFDAISELEWLGSGSQGAVFRGQLENRTVAVKKVNQLKETEIKHLRHLRHQNIIEFLGVCSKSPCYCIVMEYCSKGQLCTVLKSRNTITRELFAQWVKEIADGMHYLHQNKVIHRDLKSPNILISAEDSIKICDFGTSHMQKKMDSTMMSFCGTVSWMAPEMIKKQPCNEKVDVYSFGVVLWEMLTRETPYANIAQMAIIFGVGTNILSLPMPEEAPKGLVLLIKQCLSQKGRNRPSFSHIRQHWEIFKPELFEMTEEEWQLAWDSYREFAKCIQYPSTVTRDHGGPKSAFAMEEEIQRKRHEQLNHIKDIRNMYEMKLKRTNKMYDKLQGCFTELKLKESELAEWEKDLTEREGHHHHHH”, the “soluble on expression in E. coli” value is reported as “not soluble”.

With “MQSAIVLGGGMIGVSAALHLRQRGWTVTLVDRREPGRETSYGNAGMIQAEAVRPYPMPRDLASLLKIATGRTNDVRYSLSSLHLHIEPLLRYWWHSAPKRHREAIDAWARLIAYATAEHDILIREAHADNLIRRAGYRALYRDAAALDLSIKAAEEDQHEFGVNFRVLSGSELAKAEPVLRDDLPGAIHWLDTWTVSDPGALVTAYAELFERLGGRIVLGDAQSLQQTAAGWSVDTDQGRIDAATAVVTLGPWSPDLLYKFGYRIPLVRKRGYHMHYSGGASLDLPLIDKAGGYAMGPMAKGIRITTGAELTSPDALATPVQLASAEASARELIDLGKRVEPDPWFGTRPCTPDMLPVLGPAPLHPGLWMNFGHGHQGFTLGPATGRLLAEMMSGETPAIDPTPYRPERFLEHHHHHH”, the “soluble on expression in E. coli” value is “soluble”.

For the sequence “MGSDKIHHHHHHMDKVIEMKGITKVFPGTIANDNVNFELTRGETHVLLGENGAGKTTLMNILYGLYHPEKGQIIVNGKSVQFSGPNDAIKSGIGMVHQHFMLVNNFTVAENIVLGMEPKNGIRVDMGKAINNVKELSDKYGFAIEPKAIIEDISVGQQQKVEILKALYRGADVLILDEPTAVLTPQEIDELGDIIENLKKEGKSVILITHKLKEVMKMSDRVTIIRRGKVTGTVNTKDTSIDELAELMVGRKVNLTIAKKESKAGKEVLRVEELKVKDHRDVLVVKGINLVVNSGEILGIAGVDGNGQSEFIEALTGLKKVESGNVILNGKNISGKSAKYITNSGVGHIPEDRHKRGLVLKYSLYENSILGMHHRKPFSRMFNINYKAVRKHCKKLIEEFDIRTPNDEVNAAALSGGNQQKLVVAREISRNPDLLIASQPTRGLDVGAIEYIHKRIVEERDKGKAVLLVSLELDEILALSDRIAVMYDGKIVDVLERKDADEKKLGILMAGGNLDKKESVNTVEER”, the “soluble on expression in E. coli” value was “not soluble”.

Turning to “MGSDKIHHHHHHMATTESFAQTLAAKQPRLLAAFKHIIAQNHLAHAYLFAGMEGAGQPELAHWIAQRLFCLHINDGEPDGTCEECVRIANGSHPDIVTVAPEGQRIHVDQVRYLKAEFSKSAVEGNRKLFIINDAEKMTASAANSLLKFIEEPSGNVTALLLTTNKQLMLPTIISRTQVIEFPPLNAQALQQTFEQAGIAPNQAQMLRGLTNSVTQAQALLADDWLPQAAQALWRWFDQAVKGDPRSFVAVQVNLVGLAKDADHQLVMLDLIAALFQDLLQLHFEVATTALTFGQYQKELAGLTAEVSDEQLIAATELALTAKRQLASNISFQNVLEGLTLKLWPIFQTNA”, the “soluble on expression in E. coli” value is listed as “not soluble”.

In the case of “CLTRISRPWLVTSCIWNKQLIRRAVVWLCGLTGKPILKLTNKDYTENGLGELLAKYGSAYEVNIKLFNDIQHTITGWPGGKPNADDSSRPERALPYPKRVVIFSPHPDDDVISMGGTFHKLVNQGHDVHVAYQTSGNIAVGDEEVIRYVSYLRNVCRQYGHESSPILAKAEEVRHYLMHKKIEGDPEQEDIRFMKGTIRREEARTACRYLGLPEDHVHFLDLPFYETGLIRKNPLGEEDVRIIMALLEEIQPHRIFVAGDLADPHGTHRICLNAVLAAIDELKEESWFKEDCRVWMYRGAWAEWEIDYIEMAVPMSPDELRFKRNSILKHQSQMESAPFLGDDERLFWQRAEDRNRQTATLYEKLGLASYEAIEAFVQYRPVE”, the “soluble on expression in E. coli” value was “not soluble”.

In the case of “MGSDKIHHHHHHMKFYNREKEVAELKRVQELAFTQNSRMIVVTGRRRIGKTSLIKEALKGTPTVYLFIGRKAESILVTDFVKIVRETLSIFVPEGIPTFTNLMQYLFEVGKTRAFNIVIDEFQEFYNIRPDVFSDMQNLWDEYKQETKINLVISGSVYSLMQKIFTDHNEPLFGRADNILCLRAFKIGVLKQIMEDLASGYSNDDLLALYTLTGGIPKYVELFCDNQALTIDKMYDFVFSENSLFIDEGRNLLITEFGKNYGTYFSILSEIANGHYTQGEIESALGGTAIGGYLSKLENVYNLITRERPIFAKPGTKKNVRYVIGDNFLNFWFKYIEQNRSYIELQNFDDLRQLAKADYPTYSGRVLEKYFKQKLAETGGFKEIGSWWETKSSIGKQRINSYEIDIVALKSSGKKALIAEVKRVPENNYSHTVFMEKVEHLKQKEMSKYDIETQVLGLKDM”, the “soluble on expression in E. coli” value is recorded as “not soluble”.

“MNINTDIFKIQSNNVMPSRGKILISEPFLHDVTFGRSVVLLVDHTEEGSMGLIINKPLPLMLNDIIKEFKYIEDIPLHKGGPIGTDTLFYLHTLHEIPGTLPINNGLYLNGDFDAIKKYILQGNPIKGKIRFFLGYSGWECEQLIQEIKENTWIISKEENTYLMNEDIKGMWKEALGKLGSKYETWSRFPQVPSLNLEHHHHHH”: the “soluble on expression in E. coli” value is given as “not soluble”.

Take “MTTPYCFNLAMRKSSRLITQFYEDRLSAVGLKSGQFSILKAVSFLKQTSNKELQGILVLDQTTLSRNLKPLFRDGYLKLSPDSNDARVKLISLTTQGQALYEKADPLWQKAQDDLEKKLGSEEVKNILTLADSFVKALAR”: the “soluble on expression in E. coli” value is recorded as “not soluble”.

In the case of “MEMDKAVTGVALDLDHAQIGLIGIPDQPGIAAKVFQALAERGIAVDMIIQGVPGHDPSRQQMAFTVKKDFAQEALEALEPVLAEIGGEAILRPDIAKVSIVGVGLASTPEVPAKMFQAVASTGANIEMIATSEVRISVIIPAEYAEAALRAVHQAFELDKAHHHHHH”, the “soluble on expression in E. coli” value is given as “soluble”.
